Measured values from paper PMC6823378, “Clathrin light chain A drives selective myosin VI recruitment to clathrin-coated pits under membrane tension” (Nature Communications, 2019).
Where a chain is given by its changes, count along the chain named. In names and notes the source's numbering stands. Ends that are not written are not given here. * marks the point of attachment. 5FAM = O=C1OC2(c3ccc(O)cc3Oc3cc(O)ccc32)c2ccc(C(=O)*)cc21

B1: 5-carboxyfluorescein (5-FAM)-conjugated CLCa peptide 51–61 (peptide)
peptide: AFAILDGGAPG
modifications: also: 5-FAM conjugated, site not given here
B2: 5-carboxyfluorescein (5-FAM)-conjugated CLCa peptide 46–61 (peptide, UniProt P09496 46-61, looked up)
peptide: 5FAM-IENDEAFAILDGGAPG
notes: clathrin light chain A (CLCa), human, amino acids 46–61; also called CLCa^46–61; source: synthetic peptide (GenScript)
B3: 5-carboxyfluorescein (5-FAM)-conjugated CLCa peptide 51–66 (peptide)
peptide: AFAILDGGAPGPQPHG
modifications: also: 5-FAM conjugated, site not given here
B4: GST-CLCa fragment of amino acids 47–97 (domain or fragment, human, UniProt P09496 47-97, looked up)
chain: ENDEAFAILDGGAPGPQPHGEPPGGPDAVDGVMNGEYYQESNGPTDSYAAI
notes: clathrin light chain A (CLCa), human, amino acids 47–97; also called CLCa 47–97; source: E. coli Rosetta (DE3), on glutathione-sepharose beads
B5: myosin VI^998–1131 of the long isoform (myosin VI_(long)), cleaved from GST and purified (domain or fragment, human, UniProt Q9UM54 998-1131, looked up)
chain: QQQAVLEQERRDRELALRIAQSEAELISDEAQADLALRRSLDSYPVSKNDGTRPKMTPEQMAKEMSEFLSRGPAVLATKAAAGTKKYDLSKWKYAELRDTINTSCDIELLAACREEFHRRLKVYHAWKSKNKKR
notes: source: E. coli Rosetta (DE3), GST fusion cleaved with PreScission Protease, purified (ion exchange)
B6: CLCa^46–61, recombinant, cleaved from GST (for the NMR structure) (peptide, UniProt P09496 46-61, looked up)
peptide: IENDEAFAILDGGAPG
notes: clathrin light chain A (CLCa), human, amino acids 46–61; 13C,15N-labelled in one of the two samples; source: E. coli BL21 (DE3), GST fusion cleaved with PreScission Protease in the presence of myosin VI, purified (SEC)
B7: CLCa full length, bacterially produced (ITC; reconstitution of cages) (natural protein, human, UniProt P09496 1-248, looked up)
chain: MAELDPFGAPAGAPGGPALGNGVAGAGEEDPAAAFLAQQESEIAGIENDEAFAILDGGAPGPQPHGEPPGGPDAVDGVMNGEYYQESNGPTDSYAAISQVDRLQSEPESIRKWREEQMERLEALDANSRKQEAEWKEKAIKELEEWYARQDEQLQKTKANNRVADEAFYKQPFADVIGYVTNINHPCYSLEQAAEEAFVNDIDESSPGTEWERVARLCDFNPKSSKQAKDVSRMRSVLISLKQAPLVH
notes: clathrin light chain A (CLCa), human; Cleavage from GST is told for the cage reconstitution; also called CLCa FL; CLCa WT; source: bacterially produced and cleaved from GST, purified
B8: CLCa I54D full length (ITC) (natural protein, human, UniProt P09496 1-248, looked up)
chain: B7 chain with I54D
notes: clathrin light chain A (CLCa), human, I54D
B9: myosin VI^1050–1131 of the long isoform, cleaved from GST and purified (domain or fragment, human, UniProt Q9UM54 1050-1131, looked up)
chain: RPKMTPEQMAKEMSEFLSRGPAVLATKAAAGTKKYDLSKWKYAELRDTINTSCDIELLAACREEFHRRLKVYHAWKSKNKKR
notes: 15N- or 13C,15N-labelled in some NMR samples; also called Myo6; source: E. coli Rosetta (DE3) or BL21 (DE3), GST fusion cleaved with PreScission Protease, purified (ion exchange or SEC)

Tests used:
[1] = biological target: 5-carboxyfluorescein (5-FAM)-conjugated CLCa peptide 46–61 (human) (UniProt P09496); experiment: fluorescence polarisation; 20–50 nM 5-FAM-conjugated CLCa peptide titrated with purified myosin VI fragment from ~150 µM, 22 °C, 384-well plate
[2] = biological target: myosin VI^1050–1131 of the long isoform, cleaved from GST and purified (UniProt Q9UM54); experiment: GST pull-down, Coomassie, band quantitation; conditions: parent: est. 23; read off a plot
Chain of myosin VI^1050–1131 of the long isoform, cleaved from GST and purified (UniProt Q9UM54) (Q9UM54 whole entry, looked up, tested part not stated, canonical isoform): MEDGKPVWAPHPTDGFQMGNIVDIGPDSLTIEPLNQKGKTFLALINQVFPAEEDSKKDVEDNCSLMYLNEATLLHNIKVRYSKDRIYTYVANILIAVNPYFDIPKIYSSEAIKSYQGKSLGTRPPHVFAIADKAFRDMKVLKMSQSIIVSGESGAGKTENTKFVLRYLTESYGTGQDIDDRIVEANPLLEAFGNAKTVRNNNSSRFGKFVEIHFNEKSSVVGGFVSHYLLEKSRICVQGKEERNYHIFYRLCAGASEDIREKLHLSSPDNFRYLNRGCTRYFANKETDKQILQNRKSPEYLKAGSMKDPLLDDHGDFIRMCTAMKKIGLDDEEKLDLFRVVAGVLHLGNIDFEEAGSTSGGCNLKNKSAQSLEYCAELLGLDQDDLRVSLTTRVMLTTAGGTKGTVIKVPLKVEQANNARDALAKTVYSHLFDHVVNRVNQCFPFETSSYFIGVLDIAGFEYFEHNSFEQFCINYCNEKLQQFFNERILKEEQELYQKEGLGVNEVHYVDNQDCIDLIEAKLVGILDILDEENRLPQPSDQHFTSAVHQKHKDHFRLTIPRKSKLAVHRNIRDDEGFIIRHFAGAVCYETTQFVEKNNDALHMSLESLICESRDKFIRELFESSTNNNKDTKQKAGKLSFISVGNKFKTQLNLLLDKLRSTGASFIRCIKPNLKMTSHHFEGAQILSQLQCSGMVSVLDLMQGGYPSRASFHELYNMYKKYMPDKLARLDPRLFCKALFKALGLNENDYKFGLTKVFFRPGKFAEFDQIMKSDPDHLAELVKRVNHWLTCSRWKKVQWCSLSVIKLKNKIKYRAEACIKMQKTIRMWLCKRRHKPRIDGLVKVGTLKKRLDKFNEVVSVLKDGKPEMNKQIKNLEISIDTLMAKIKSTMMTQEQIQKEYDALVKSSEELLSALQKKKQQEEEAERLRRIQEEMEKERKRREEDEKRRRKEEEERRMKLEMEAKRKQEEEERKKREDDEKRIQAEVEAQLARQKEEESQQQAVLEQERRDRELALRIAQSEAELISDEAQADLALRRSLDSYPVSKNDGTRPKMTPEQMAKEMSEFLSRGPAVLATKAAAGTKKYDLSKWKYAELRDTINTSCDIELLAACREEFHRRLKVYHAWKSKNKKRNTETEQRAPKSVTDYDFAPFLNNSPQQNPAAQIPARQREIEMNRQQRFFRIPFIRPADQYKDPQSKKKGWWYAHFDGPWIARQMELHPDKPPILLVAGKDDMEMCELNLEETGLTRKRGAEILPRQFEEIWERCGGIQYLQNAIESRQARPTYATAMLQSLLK

[3] = biological target: T1, myosin VI^998–1131 of the long isoform (myosin VI_(long)), cleaved from GST and purified (human, UniProt Q9UM54 998-1131); experiment: FP
T1 chain: B5 chain

[4] = biological target: T2, myosin VI^1069–1131 (human, UniProt Q9UM54 1069-1131); experiment: FP
T2 chain: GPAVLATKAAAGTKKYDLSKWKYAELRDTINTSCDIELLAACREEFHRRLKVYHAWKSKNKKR

[5] = biological target: B9; experiment: fluorescence polarisation; 20–50 nM 5-FAM-conjugated CLCa peptide titrated with purified myosin VI fragment from ~150 µM, 22 °C, 384-well plate; conditions: both partners purified
[6] = biological target: B5; experiment: as above; conditions: both partners purified
[7] = biological target: B5; experiment: pull-down; GST-CLC proteins (1.5 μM) on glutathione sepharose beads incubated 1 h at 4 °C in JS buffer with cleaved and purified myosin VI fragments; SDS-PAGE, Coomassie; conditions: both partners purified
[8] = biological target: T3, 5-carboxyfluorescein (5-FAM)-conjugated CLCa peptide 51–61 (human, UniProt P09496 51-61, also: 5-FAM conjugated, site not given here); experiment: fluorescence polarisation; 20–50 nM 5-FAM-conjugated CLCa peptide titrated with purified myosin VI fragment from ~150 µM, 22 °C, 384-well plate; conditions: both partners purified
T3 construct: clathrin light chain A (CLCa), human, amino acids 51–61; source: synthetic peptide (GenScript)
T3 peptide (looked up): AFAILDGGAPG

[9] = biological target: T4, 5-carboxyfluorescein (5-FAM)-conjugated CLCa peptide 51–66 (human, UniProt P09496 51-66, also: 5-FAM conjugated, site not given here); experiment: as above; conditions: both partners purified
T4 construct: clathrin light chain A (CLCa), human, amino acids 51–66; source: synthetic peptide (GenScript)
T4 peptide (looked up): AFAILDGGAPGPQPHG

[10] = biological target: B9; experiment: NMR structure; complex of myosin VI^1050–1131 and CLCa^46–61, 221 intermolecular NOEs; 10 °C, 20 mM NaPO4 pH 6.5, 50 mM NaCl, 2 mM DTT; conditions: both partners purified
[11] = biological target: B9; experiment: ITC; 380 µM CLCa WT or I54D titrated into 20 µM Hip1R^346–655 or myosin VI^1050–1131 in the cell; 20 mM Tris-HCl pH 8.0, 150 mM NaCl, 2.5% glycerol, 25 °C; one-set-of-sites model; conditions: both partners purified
[12] = biological target: T5, His-Hip1R coiled-coil region (amino acids 346–655) (UniProt O75146 346-655); experiment: as above; conditions: both partners purified
T5 construct: also called His-Hip1R^346–655; Hip1R^346–655; source: bacterially purified (pRSF-duet)
T5 sequence (looked up): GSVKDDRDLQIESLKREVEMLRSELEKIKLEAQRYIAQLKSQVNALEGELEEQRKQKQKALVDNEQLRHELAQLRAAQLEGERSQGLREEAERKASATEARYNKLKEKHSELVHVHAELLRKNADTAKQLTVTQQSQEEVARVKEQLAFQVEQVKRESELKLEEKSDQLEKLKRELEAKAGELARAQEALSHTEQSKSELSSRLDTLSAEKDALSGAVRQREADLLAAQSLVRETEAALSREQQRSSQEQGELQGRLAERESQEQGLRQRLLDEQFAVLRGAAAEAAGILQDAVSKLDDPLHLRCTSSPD

[13] = biological target: B7; experiment: as above; conditions: both partners purified

## myosin VI Y1121A mutant used for FP analysis (domain or fragment)
[1]
  difference in binding affinity against the wild type: 2 log-fold

## GST-CLCa 46–61 WT I54D
[2]
  response: 3 % of binding

## myosin VI^998–1131 of the short isoform (myosin VI_(short)), cleaved from GST and purified (domain or fragment)
[1]
  Kd: 96 µM

## B1
[3]
  Kd: 22.6 µM

## B2
[4]
  Kd: 22 µM
[5]
  Kd: 0.4 µM
[6]
  Kd: 0.93 µM

## B3
[3]
  Kd: 13.1 µM

## B4
[7]
  binding result: binds

## B5
[8]
  fold higher affinity of peptide 46–61 than of this peptide: 10 fold
[9]
  fold higher affinity of peptide 46–61 than of this peptide: 10 fold

## B6
[10]
  binding result: binds

## B7
[11]
  dH: -48.5 kJ/mol
  stoichiometry N: 0.79 sites
[12]
  Kd: 1.37 µM
  dH: -40.6 kJ/mol
  stoichiometry N: 1.15 sites

## B8
[12]
  Kd: 0.99 µM
  dH: -36.5 kJ/mol
  stoichiometry N: 1.01 sites

## B9
[13]
  Kd: 0.09 µM
